# Experimental data taken from PMC7943567 (2021).
# B1: human MET ectodomain fragment (residues 1-931) with C-terminal biotin acceptor sequence (domain or fragment)
# chain: ECKEALAKSEMNVNMKYQLPNFTAETPIQNVILHEHHIFLGATNYIYVLNEEDLQKVAEYKTGPVLEHPDCFPCQDCSSKANLSGGVWKDNINMALVVDTYYDDQLISCGSVNRGTCQRHVFPHNHTADIQSEVHCIFSPQIEEPSQCPDCVVSALGAKVLSSVKDRFINFFVGNTINSSYFPDHPLHSISVRRLKETKDGFMFLTDQSYIDVLPEFRDSYPIKYVHAFESNNFIYFLTVQRETLDAQTFHTRIIRFCSINSGLHSYMEMPLECILTEKRKKRSTKKEVFNILQAAYVSKPGAQLARQIGASLNDDILFGVFAQSKPDSAEPMDRSAMCAFPIKYVNDFFNKIVNKNNVRCLQHFYGPNHEHCFNRTLLRNSSGCEARRDEYRTEFTTALQRVDLFMGQFSEVLLTSISTFIKGDLTIANLGTSEGRFMQVVVSRSGPSTPHVNFLLDSHPVSPEVIVEHTLNQNGYTLVITGKKITKIPLNGLGCRHFQSCSQCLSAPPFVQCGWCHDKCVRSEECLSGTWTQQICLPAIYKVFPNSAPLEGGTRLTICGWDFGFRRNNKFDLKKTRVLLGNESCTLTLSESTMNTLKCTVGPAMNKHFNMSIIISNGHGTTQYSTFSYVDPVITSISPKYGPMAGGTLLTLTGNYLNSGNSRHISIGGKTCTLKSVSNSILECYTPAQTISTEFAVKLKIDLANRETSIFSYREDPIVYEIHPTKSFISGGSTITGVGKNLNSVSVPRMVINVHEAGRNFTVACQHRSNSEIICCTTPSLQQLNLQLPLKTKAFFMLDGILSKYFDLIYVHNPVFKPFEKPVMISMGNENVLEIKGNDIDPEAVKGEVLKVGNKSCENIHLHSEAVLCTVPNDLLKLNSELNIEWKQAISSTVLGKVIVQPDQNF
# modifications: biotin on the biotin acceptor sequence (BirA-mediated)
# B2: human PlxnB1 ectodomain fragment (residues 1-535) with C-terminal biotin acceptor sequence (domain or fragment)
# chain: LQPLPPTAFTPNGTYLQHLARDPTSGTLYLGATNFLFQLSPGLQLEATVSTGPVLDSRDCLPPVMPDECPQAQPTNNPNQLLLVSPGALVVCGSVHQGVCEQRRLGQLEQLLLRPERPGDTQYVAANDPAVSTVGLVAQGLAGEPLLFVGRGYTSRGVGGGIPPITTRALWPPDPQAAFSYEETAKLAVGRLSEYSHHFVSAFARGASAYFLFLRRDLQAQSRAFRAYVSRVCLRDQHYYSYVELPLACEGGRYGLIQAAAVATSREVAHGEVLFAAFSSAAPPTVGRPPSAAAGASGASALCAFPLDEVDRLANRTRDACYTREGRAEDGTEVAYIEYDVNSDCAQLPVDTLDAYPCGSDHTPSPMASRVPLEATPILEWPGIQLTAVAVTMEDGHTIAFLGDSQGQLHRVYLGPGSDGHPYSTQSIQQGSAVSRDLTFDGTFEHLYVMTQSTLLKVPVASCAQHLDCASCLAHRDPYCGWCVLLGRCSRRSECSRGQGPEQWLWSFQPELGCLQ
# modifications: biotin on the biotin acceptor sequence (BirA-mediated)
# Key:
# [1] = molecular target: UG2 fusion of the MET-binding peptide aMD4 (human); assay: SPR
# [2] = molecular target: UG2 fusion of the MET-binding peptide aMD5 (human); assay: SPR
# aMD5 (free peptide) = assay: SPR; value cited from earlier paper
# aMD4 (free peptide) = assay: SPR; value cited from earlier paper
# [3] = molecular target: Fc proteins lasso-grafted with MET-binding peptides (SPR, Fig. 1c); assay: SPR; aMD4 grafted on Fc; divalent, not true 1:1 affinity
# [4] = molecular target: UG2-m6, single-chain tandem uteroglobin dimer with the PB1m6 peptide fused between two UG monomers (human, UniProt P11684); assay: SPR
# [5] = molecular target: UG2 fusion of the PlxnB1-binding peptide PB1m7 (human); assay: SPR
# [6] = molecular target: UG2-m6A9, single-chain tandem uteroglobin dimer grafted with the affinity-matured m6A9 peptide (human, UniProt P11684); assay: SPR
# PB1m7 (free peptide) = assay: SPR; value cited from earlier paper
# PB1m6A9 (free peptide) = assay: SPR; value cited from earlier paper
# [7] = molecular target: T1, Fc proteins lasso-grafted with PlxnB1-binding peptides (SPR, Fig. 1c); assay: SPR; PB1m7 grafted on Fc; divalent, not true 1:1 affinity
# [8] = molecular target: T1, Fc proteins lasso-grafted with …; assay: SPR; PB1m6A9 grafted on Fc; divalent, not true 1:1 affinity
binder,measurement,setting,value
B1,Kd,[1],91.6 nM
same,koff,[1],0.004 s⁻¹
same,Kd,[2],211 nM
same,koff,[2],0.019 s⁻¹
same,Kd,aMD5 (free peptide),2.3 nM
same,koff,aMD5 (free peptide),0.011 s⁻¹
same,Kd,aMD4 (free peptide),2.4 nM
same,koff,aMD4 (free peptide),0.003 s⁻¹
same,Kd,[3],4.5 nM
same,koff,[3],0.0007 s⁻¹
B2,Kd,[4],45.8 nM
same,koff,[4],0.0041 s⁻¹
same,Kd,[5],3250 nM
same,koff,[5],0.051 s⁻¹
same,Kd,[6],8.26 nM
same,koff,[6],0.0014 s⁻¹
same,Kd,PB1m7 (free peptide),275 nM
same,koff,PB1m7 (free peptide),0.01 s⁻¹
same,Kd,PB1m6A9 (free peptide),0.28 nM
same,koff,PB1m6A9 (free peptide),0.0021 s⁻¹
same,Kd,[7],61.4 nM
same,koff,[7],0.055 s⁻¹
same,Kd,[8],0.023 nM
same,koff,[8],0.0004 s⁻¹
